Test results from patent US20250011363A1, “OPTIMIZED SHORTENED PEPTIDE THAT BINDS TO ACETYLCHOLINE RECEPTOR, AND USE THEREOF” (SKINMED CO., LTD., priority 2021, published 2025).

What follows are substances tested against acetylcholine receptor (Homo sapiens, UniProt P02708) (assay: SPR binding affinity (RU) of optimized 5mer/6mer/7mer peptides, Examples 6-7). Conditions: 6mer-1 Top sequence; SPR; peptides tested at 10 μM.
Method: Based on the frequencies of occurrence of the top 7 amino acids from Table 7 in Example 5, 600 peptides comprising these amino acids (top combinations) and those comprising the 13 less frequently occurring amino acids (bottom combinations) were synthesized for each series of 5mer, 6mer-1, and 6mer-2. The binding affinity of each sequence for the acetylcholine receptor was measured using Surface Plasmon Resonance (SPR) analysis method. The peptides were tested at a concentration of 10 μM. Additionally, the average binding affinities of the top and bottom combinations in each series are depicted in FIGS. 5-7.
Representative peptides identified in Example 6, two in each library, including 5mers (73, 311) and 6mers-1 (43, 210) and 6mers-2 (136, 233), were compared with the pre-optimized 6mer, 5mer-ND, and Synake.

Sequence of acetylcholine receptor (P02708 21-457): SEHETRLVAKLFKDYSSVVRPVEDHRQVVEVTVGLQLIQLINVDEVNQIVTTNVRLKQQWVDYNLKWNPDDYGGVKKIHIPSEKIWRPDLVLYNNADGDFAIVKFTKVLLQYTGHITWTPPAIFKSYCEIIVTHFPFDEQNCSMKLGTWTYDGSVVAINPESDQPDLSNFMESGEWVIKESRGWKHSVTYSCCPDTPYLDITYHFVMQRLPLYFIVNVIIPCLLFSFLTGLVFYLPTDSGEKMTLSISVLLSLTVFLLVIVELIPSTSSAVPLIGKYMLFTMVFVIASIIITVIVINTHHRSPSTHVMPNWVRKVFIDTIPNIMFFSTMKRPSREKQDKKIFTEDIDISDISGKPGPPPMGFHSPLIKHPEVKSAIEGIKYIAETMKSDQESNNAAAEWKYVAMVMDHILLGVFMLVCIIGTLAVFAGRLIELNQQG

Substance | Binding affinity
6mer-1-324 (RRLQRR) | 128 Ru
6mer-1-388 (RRLLQR) | 142 Ru
6mer-1-242 (KRQYLK) | 148 Ru
6mer-1-318 (KKSRRK) | 145 Ru
6mer-1-367 (RKGFSK) | 154 Ru

Same assay, conditions: 6mer-2 Top sequence; SPR; peptides tested at 10 μM

Substance | Binding affinity
6mer-2-106 (RWVQRK) | 123 Ru
6mer-2-20 (RVQTRR) | 137 Ru

Same assay, conditions: SPR, Resonance Units; 5mer Bottom sequence (bottom combinations); peptides tested at 10 μM

Substance | Binding affinity
5mer-970 (KYMNR) | 33 Ru
5mer-808 (KFCIR) | 13 Ru
5mer-1078 (KEAWK) | 19 Ru
5mer-1092 (KPMVK) | 12 Ru
5mer-1067 (KHENK) | 23 Ru
5mer-1040 (KTPWR) | 17 Ru
5mer-918 (RNNVR) | 12 Ru
5mer-948 (KDSFK) | 18 Ru
5mer-986 (RPMDK) | 12 Ru
5mer-1027 (KNTNR) | 28 Ru
5mer-905 (RPSPR) | 30 Ru
5mer-1065 (KNPIR) | 18 Ru
5mer-951 (RYMGR) | 18 Ru
5mer-621 (KKSMK) | 13 Ru
5mer-683 (KYPDK) | 32 Ru
5mer-1025 (RHKWK) | 25 Ru
5mer-913 (KHTFK) | 13 Ru
5mer-980 (RKPHR) | 33 Ru
5mer-747 (RKTDK) | 31 Ru

Same assay, conditions: SPR, Resonance Units; peptides tested at 10 μM; 6mer-1 Bottom sequence

Substance | Binding affinity
6mer-1-1111 (RRASPR) | 38 Ru
6mer-1-1177 (RRHTMR) | 21 Ru
6mer-1-1004 (RKHSHR) | 41 Ru
6mer-1-1144 (KKCMGR) | 25 Ru
6mer-1-1054 (RRMKVK) | 37 Ru
6mer-1-1012 (RRAWVR) | 35 Ru
6mer-1-1147 (RKAPHR) | 35 Ru
6mer-1-1064 (RKPTAK) | 41 Ru
6mer-1-1065 (KRDKAK) | 23 Ru
6mer-1-1159 (RRAWPR) | 39 Ru
6mer-1-1145 (RRDCKK) | 40 Ru
6mer-1-1118 (KKDTIK) | 33 Ru
6mer-1-1059 (RRETVK) | 39 Ru
6mer-1-1157 (RKESVR) | 36 Ru
6mer-1-1131 (RKDNIK) | 42 Ru
6mer-1-1189 (KKCHWR) | 40 Ru

Same assay, conditions: SPR, Resonance Units; peptides tested at 10 μM; 6mer-1 Bottom sequence (Table 11)

Substance | Binding affinity
6mer-1-750 (KRENIK) | 33 Ru
6mer-1-702 (KRDWVK) | 31 Ru
6mer-1-793 (KKTPNR) | 31 Ru

Same assay, conditions: SPR, Resonance Units; peptides tested at 10 μM; 6mer-2 Bottom sequence

Substance | Binding affinity
6mer-2-863 (RKHWRR) | 17 Ru
6mer-2-694 (KDSIRK) | 22 Ru
6mer-2-808 (RKKFKK) | 21 Ru
6mer-2-949 (RPNARR) | 39 Ru
6mer-2-957 (RDTHRR) | 40 Ru
6mer-2-871 (REMPKR) | 31 Ru
6mer-2-615 (KDNGRK) | 27 Ru
6mer-2-777 (KNDVRR) | 31 Ru
6mer-2-959 (RTNARK) | 35 Ru
6mer-2-950 (KYNKRR) | 26 Ru

Same assay, conditions: SPR, Resonance Units; peptides tested at 10 μM; 6mer-2 Top sequence

Substance | Binding affinity
6mer-2-453 (RLVRKK) | 141 Ru
6mer-2-520 (KSYCKR) | 144 Ru
6mer-2-416 (RWRLRR) | 131 Ru
6mer-2-505 (KRQCKK) | 148 Ru
6mer-2-553 (RSLQKK) | 124 Ru
6mer-2-597 (KQFLRK) | 154 Ru
6mer-2-422 (RLITRR) | 154 Ru
6mer-2-466 (RLLTRR) | 142 Ru

Same assay, conditions: SPR, Resonance Units; peptides tested at 10 μM; 6mer-2 Top sequence (Table 12)

Substance | Binding affinity
6mer-2-230 (RWIQRR) | 135 Ru
6mer-2-317 (RGLYKR) | 135 Ru
6mer-2-318 (RGIQKK) | 145 Ru
6mer-2-220 (KVYSKR) | 135 Ru

Same assay, conditions: SPR, peptides at 10 μM; 6mer-2 Bottom sequence

Substance | Binding affinity
6mer-2-1174 (RCEPRK) | 21 Ru
6mer-2-1043 (RDKGKK) | 40 Ru
6mer-2-1097 (RFWEKK) | 23 Ru
6mer-2-1062 (KYNIRK) | 35 Ru
6mer-2-1167 (RCAPKR) | 27 Ru
6mer-2-1082 (KYTERR) | 31 Ru
6mer-2-1080 (RKHKKK) | 23 Ru
6mer-2-1075 (RHMERK) | 31 Ru

Same assay, conditions: SPR, peptides tested at 10 μM; 5mer Top sequence

Substance | Binding affinity
5mer-305 (KRICK) | 72 Ru
5mer-35 (RWQYK) | 80 Ru
5mer-125 (RVRQK) | 67 Ru
5mer-90 (RWYTK) | 86 Ru
5mer-475 (RRFCK) | 56 Ru
5mer-56 (KRFCK) | 59 Ru
5mer-142 (RQYSR) | 52 Ru
5mer-307 (KQRCK) | 82 Ru
5mer-141 (RWQQR) | 50 Ru
5mer-14 (RWLCK) | 63 Ru
5mer-373 (KVFTK) | 87 Ru
5mer-54 (KWLQR) | 66 Ru
5mer-178 (RRVLK) | 87 Ru

Same assay, conditions: SPR, peptides tested at 10 μM; 5mer Top sequence (top combinations)

Substance | Binding affinity
5mer-212 (KQQYK) | 64 Ru
5mer-600 (KLYSK) | 64 Ru
5mer-573 (RSIYR) | 84 Ru
5mer-246 (KSFTR) | 60 Ru
5mer-287 (KRYRR) | 68 Ru
5mer-517 (KGYTR) | 70 Ru
5mer-297 (RSLRK) | 81 Ru

Same assay, conditions: SPR, peptides tested at 10 μM; 6mer-1 Bottom sequence (Table 11)

Substance | Binding affinity
6mer-1-807 (RRDKNR) | 13 Ru
6mer-1-912 (KKETFR) | 33 Ru
6mer-1-883 (KKIDDK) | 21 Ru
6mer-1-932 (KRFEFK) | 38 Ru
6mer-1-825 (RKEKWK) | 30 Ru
6mer-1-890 (RRTSNK) | 18 Ru
6mer-1-978 (RRKSHK) | 43 Ru

Same assay, conditions: SPR, peptides tested at 10 μM; 6mer-1 Top sequence

Substance | Binding affinity
6mer-1-421 (RKVLYR) | 135 Ru
6mer-1-483 (KRQVTK) | 151 Ru
6mer-1-475 (RKLQTK) | 148 Ru
6mer-1-530 (KRLVSK) | 137 Ru
6mer-1-449 (KRGRCK) | 135 Ru

Same assay, conditions: SPR, peptides tested at 10 μM; 6mer-1 Top sequence (top combinations)

Substance | Binding affinity
6mer-1-105 (KKSISK) | 141 Ru
6mer-1-82 (KKVLYR) | 123 Ru
6mer-1-111 (RKVICR) | 144 Ru
6mer-1-57 (RKQYYK) | 139 Ru
6mer-1-41 (RKGITK) | 122 Ru
6mer-1-148 (RKLRCR) | 146 Ru
6mer-1-133 (RKRFLR) | 154 Ru
6mer-1-151 (KRGVRR) | 145 Ru

Same assay, conditions: SPR; XRRGVRR-7mer and RRGVRRX-7mer

Substance | Binding affinity, values relative to the RRGVRR sequence
3642 (ARRGVRR) [compound 3642] | 134
3657 (RRRGVRR) [compound 3657] | 185

Same assay, conditions: SPR; peptides tested at 10 μM; 5mer Bottom sequence

Substance | Binding affinity
5mer-818 (KHWHR) | 12 Ru
5mer-900 (RHSVK) | 29 Ru
5mer-1153 (RDAPR) | 27 Ru
